This passage reports Kd, binding result and EC50 results from article PMC11234460, “In Silico Discovery of Stapled Peptide Inhibitor Targeting the Nur77‐PPARγ Interaction and Its Anti‐Breast‐Cancer Efficacy” (Advanced Science, 2024).

Bridges are numbered along the chain shown (N, C = ends). Where no end group is shown, it is not given here. [ ]: non-standard residue; d: D form. S5 = C=CCCC[C@](C)(N)C(=O)O

Test [1] addresses T1, LBD fragment of human Nur77 (residues 351–598) (human, UniProt P22736 351-598).
T1 construct: Labelled with a fluorescent dye for MST; amine-coupled to the chip for SPR; also called Nur77 LBD; Nur77-LBD; source: E. coli BL21(DE3), purified (Ni-NTA, Superdex 200 gel filtration)
Put plainly: MST; purified Nur77 LBD labelled with fluorescent dye; peptides 0.1-100 × 10^-6 M; PBST (0.05% Tween-20); 20 min at room temperature; Dianthus (NanoTemper). The conditions noted are these: both partners purified.

Test [2] concerns the target T2, SmallBit-Nur77 (luciferase SmallBit fusion of Nur77) (UniProt P22736 1-598).
T2 construct: Nur77; source: HEK293T, transiently transfected, in living cells
Put plainly: split reporter (BiFC, NanoBiT). The conditions noted are these: one partner purified.

The target of test [3] is T1, LBD fragment of human Nur77 (residues …). Nature of the test: MST. Particulars: both partners purified.
Test [4] has the same target. Nature of the test: SPR. Particulars: both partners purified.

T1 sequence (P22736 351-598): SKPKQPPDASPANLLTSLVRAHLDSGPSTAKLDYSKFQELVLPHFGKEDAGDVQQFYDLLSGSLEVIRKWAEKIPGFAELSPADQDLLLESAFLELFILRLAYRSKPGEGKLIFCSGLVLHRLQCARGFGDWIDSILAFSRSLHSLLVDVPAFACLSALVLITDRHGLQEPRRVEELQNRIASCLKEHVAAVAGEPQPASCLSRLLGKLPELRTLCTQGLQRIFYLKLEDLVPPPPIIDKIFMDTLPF
T2 sequence (P22736 whole entry, the tested form may be a part): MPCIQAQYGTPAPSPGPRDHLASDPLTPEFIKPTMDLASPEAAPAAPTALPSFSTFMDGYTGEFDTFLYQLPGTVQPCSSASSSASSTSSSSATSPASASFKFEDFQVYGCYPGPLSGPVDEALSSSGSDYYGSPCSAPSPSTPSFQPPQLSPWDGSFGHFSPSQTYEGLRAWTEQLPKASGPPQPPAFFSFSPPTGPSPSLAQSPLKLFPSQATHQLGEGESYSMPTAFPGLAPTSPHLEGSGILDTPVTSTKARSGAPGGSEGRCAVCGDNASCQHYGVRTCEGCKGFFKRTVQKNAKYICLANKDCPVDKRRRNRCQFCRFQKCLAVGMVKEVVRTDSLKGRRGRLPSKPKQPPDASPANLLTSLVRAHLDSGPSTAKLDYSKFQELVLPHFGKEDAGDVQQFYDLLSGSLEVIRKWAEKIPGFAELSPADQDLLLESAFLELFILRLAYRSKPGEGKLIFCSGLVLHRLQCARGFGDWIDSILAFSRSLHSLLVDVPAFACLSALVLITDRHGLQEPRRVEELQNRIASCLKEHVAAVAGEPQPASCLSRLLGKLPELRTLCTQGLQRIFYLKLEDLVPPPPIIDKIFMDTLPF

B1: CY14 (CL14 with Leu169 mutated to Tyr) (peptide, UniProt P37231 156-169, looked up)
peptide: CEGCKGFFRRTIRY-NH2
modifications: cysteine pairing not given here
notes: PPARγ, residues Cys156-Leu169, with Leu169 mutated to Tyr; source: synthetic peptide (Fmoc SPPS on Rink Amide MBHA resin)
The molecule B1 came in with a Kd in test [1] of 8.7 µM.

B2: CH14 (CL14 with Leu169 mutated to His) (peptide, UniProt P37231 156-169, looked up)
peptide: CEGCKGFFRRTIRH
notes: PPARγ, residues Cys156-Leu169, with Leu169 mutated to His; source: synthetic peptide (Fmoc SPPS on Rink Amide MBHA resin)
As for B2, the binding result in test [1] is listed as “binds”.

B3: CL14, α-helix of PPARγ (residues Cys156-Leu169) (peptide, UniProt P37231 156-169, looked up)
peptide: CEGCKGFFRRTIRL-NH2
modifications: cysteine pairing not given here
notes: PPARγ, residues Cys156-Leu169 of the DBD; Made on Rink amide resin, so probably a C-terminal amide; source: synthetic peptide (Fmoc SPPS on Rink Amide MBHA resin)
Take B3: the Kd in test [1] is 27.2 µM.

B4: CF14 (CL14 with Leu169 mutated to Phe) (peptide, UniProt P37231 156-169, looked up)
peptide: CEGCKGFFRRTIRF
notes: PPARγ, residues Cys156-Leu169, with Leu169 mutated to Phe; source: synthetic peptide (Fmoc SPPS on Rink Amide MBHA resin)
Consider B4, for which, in test [1], the binding result is reported as “binds”.

B5: CW14 (CL14 with Leu169 mutated to Trp) (peptide, UniProt P37231 156-169, looked up)
peptide: CEGCKGFFRRTIRW
notes: PPARγ, residues Cys156-Leu169, with Leu169 mutated to Trp; source: synthetic peptide (Fmoc SPPS on Rink Amide MBHA resin)
As for B5, in test [1], the binding result is on record as “binds”.
Turning to H-CEGCKGF[S5]RRT[S5]RYYGRKKRRQRRR-NH2 (staple 8-12; cysteine pairing not given here) [ST-CY14 (stapled T-CY14)], in test [2], the midpoint of the response, the EC50, lay at 3.15 µM. Further, the Kd came out at 0.668 µM in test [3] and 0.0325 µM in test [4].
With CEGCKGFFRRTIRYRKKRRQRRR-NH2 (cysteine pairing not given here) [T-CY14 (CY14 with the TAT sequence conjugated to its C-terminus)], the equilibrium dissociation constant (Kd) in test [3] was determined as 4.18 µM.

B6: SV16, α-helix of PPARγ (residues Ser186-Val201) (peptide, UniProt P37231 186-201, looked up)
peptide: SRNKCQYCRFQKCLAV-NH2
modifications: cysteine pairing not given here
notes: PPARγ, residues Ser186-Val201 of the DBD; Made on Rink amide resin, so probably a C-terminal amide; source: synthetic peptide (Fmoc SPPS on Rink Amide MBHA resin)
Consider B6, for which, in test [1], the Kd was 156 µM.
CEGCKGF[S5]RRT[S5]RY-NH2 (staple 8-12; cysteine pairing not given here) [S-CY14 (stapled CY14)]: the Kd in test [1] was found to be 3.96 µM.

As a reminder, the Kd is the constant that tells how readily two partners part at equilibrium. As usually defined, the EC50 is the concentration that produces a half-maximal response.
